The numbers were not newly measured in PMC10215765, which cites them from elsewhere.

Broadly, the Kd is the concentration at which binding is half-saturated.

The data set addresses Band 3 cytoplasmic N-terminal domain (Homo sapiens) (UniProt P02730).
Chain of UniProt P02730 (P02730 1-379): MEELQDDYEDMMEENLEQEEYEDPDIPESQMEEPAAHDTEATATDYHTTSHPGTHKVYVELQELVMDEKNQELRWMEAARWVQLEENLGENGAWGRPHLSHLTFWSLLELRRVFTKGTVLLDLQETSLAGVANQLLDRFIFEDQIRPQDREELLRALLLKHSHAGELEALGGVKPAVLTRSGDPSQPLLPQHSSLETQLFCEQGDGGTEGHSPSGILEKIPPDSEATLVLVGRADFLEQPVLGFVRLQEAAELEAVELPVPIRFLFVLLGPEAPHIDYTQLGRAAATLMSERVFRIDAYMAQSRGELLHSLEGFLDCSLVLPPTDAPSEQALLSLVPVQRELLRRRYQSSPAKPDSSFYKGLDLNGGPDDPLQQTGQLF

Consider Peroxiredoxin 2 (from UniProt P32119), for which the Kd is 34 nM.
